Data reported in patent US20230192817A1 (ZHUHAI TRINOMAB PHARMACEUTICAL, published 2023).
Substitutions are numbered along the chain they refer to.

T1: VZV gH/gL protein complex (CAMBRIDGEBIO, Cat No: 01-11-0045) (Varicella-Zoster Virus, UniProt P09260 18-802; P09308 22-159)
T1 construct: also called gHgL-Cambridge
T1 sequence 1: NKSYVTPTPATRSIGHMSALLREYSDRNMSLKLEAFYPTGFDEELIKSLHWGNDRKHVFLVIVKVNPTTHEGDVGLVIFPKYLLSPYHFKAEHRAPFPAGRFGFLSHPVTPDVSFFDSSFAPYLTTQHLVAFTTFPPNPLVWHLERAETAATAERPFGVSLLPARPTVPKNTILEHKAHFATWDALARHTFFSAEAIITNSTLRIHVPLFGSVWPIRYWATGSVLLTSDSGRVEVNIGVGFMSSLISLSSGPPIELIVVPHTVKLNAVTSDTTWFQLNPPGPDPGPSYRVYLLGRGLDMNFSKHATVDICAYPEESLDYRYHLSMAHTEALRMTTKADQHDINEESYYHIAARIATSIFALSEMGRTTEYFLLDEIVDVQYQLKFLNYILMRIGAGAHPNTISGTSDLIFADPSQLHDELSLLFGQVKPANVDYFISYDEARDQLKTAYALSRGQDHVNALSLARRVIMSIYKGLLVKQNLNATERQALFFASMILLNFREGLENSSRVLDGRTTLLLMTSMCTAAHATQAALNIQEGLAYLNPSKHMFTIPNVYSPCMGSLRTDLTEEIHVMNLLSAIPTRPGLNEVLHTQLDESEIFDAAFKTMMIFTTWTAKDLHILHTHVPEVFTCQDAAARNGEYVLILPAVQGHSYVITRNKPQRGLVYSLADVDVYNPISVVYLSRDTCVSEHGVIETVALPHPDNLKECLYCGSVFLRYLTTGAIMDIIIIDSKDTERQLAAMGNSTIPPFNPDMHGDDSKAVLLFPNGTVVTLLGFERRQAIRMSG
T1 sequence 2: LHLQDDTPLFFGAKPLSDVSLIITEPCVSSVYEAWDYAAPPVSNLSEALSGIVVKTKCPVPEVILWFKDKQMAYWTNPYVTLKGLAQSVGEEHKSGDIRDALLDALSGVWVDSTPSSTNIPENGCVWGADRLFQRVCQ

B1: fully human VZV monoclonal antibody TRN1024 (antibody, V domains shown)
VH: QVQLVQSGGGLVQPGGSLRLSCEASGFTFSSYWMSWVRQAPGKGLEWVANIKQDGSEKYYVDSVKGRFSISRDNAKNSLYLQMNSLRVEDTAVYYCAREGGGQGKWRLEYGMDVWGQGTTVIVSS
VL: not shown
B2: fully human VZV monoclonal antibody TRN1025 (antibody, V domains shown)
VH: QVQLVQSGGGLVQPGGSLRLSCVASGFTFSSYAMTWVRQAPGKGLEWVSTISGSGGSTFYADSVRGRFTISRDNSKNALYLQMNSLRAEDTAVYYCAKDRSYGGNQPFDYWGQGTLVTVSS
VL: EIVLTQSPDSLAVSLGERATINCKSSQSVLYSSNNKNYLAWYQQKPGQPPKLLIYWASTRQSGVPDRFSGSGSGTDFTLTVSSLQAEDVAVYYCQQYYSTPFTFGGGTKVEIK
B3: fully human VZV monoclonal antibody TRN1026 (antibody, V domains shown)
VH: QVQLVQSGAEVKKPGSSVKVSCKASGRTFSSYAYSWVRQAPGQGLEWMGRVIPVLGITNYAPKFQGKVTITVDKVTSTAFLELTGLKSDDTAVYYCARVSDDVLTGALDYWGQGTLVTVSS
VL: QSVLTQPPSVSGSPGQSVTISCTGTRSDVGSHNRVAWFQQSPGTAPKLMIYEVTNRPSGVPDRFSGSKSGNTASLTISGLQAEDEADYYCSSYTSTSTWVFGGGTKLTVL
B4: antibody variant derived from antibody TRN1026 (antibody, V domains shown)
VH: B3 VH with G66D, V72A
VL: B3 VL with C22F
notes: also called Antibody derived from TRN1026

Assays:
[1] = molecular target: T1, VZV gH/gL protein complex …; experiment: ELISA, plate coated with 100 ng/well VZV gH/gL complex, detection Goat-Anti-IgG-Fab-HRP
[2] = molecular target: T1, VZV gH/gL protein complex …; experiment: SPR (Biacore), antibody captured on anti-human IgG (Fc) CM5 chip, gH/gL complex as analyte
[3] = molecular target: T1, VZV gH/gL protein complex …; experiment: ELISA, culture supernatant

| Binder | EC50 (read off the curve) [1] [µg/mL] | Kd [2] [nM] | koff [2] [s⁻¹] | kon [2] [M⁻¹ s⁻¹] | EC50 [3] [µg/mL] |
| --- | --- | --- | --- | --- | --- |
| B1 | ~0.6 | 36.7 | 0.000621 | 16900 | – |
| B2 | ~0.5 | 13.4 | 0.000416 | 31100 | – |
| B3 | – | 2.66 | 0.000274 | 103000 | – |
| B4 | – | – | – | – | 0.05 |
